# Reference: article PMC6738421
# Experiments:
# [1] = target: Arginyl-tRNA-protein transferase Ate1, isoform Ate1-1 (mouse) (UniProt Q9Z2A5)
# [2] = target: Arginyl-tRNA-protein transferase Ate1, isoform Ate1-3 (mouse) (UniProt Q9Z2A5)
# Arginyl-tRNA-protein transferase Ate1, isoform Ate1-3 (mouse), sequence (Q9Z2A5 other isoform, or with tags, fused parts or gaps): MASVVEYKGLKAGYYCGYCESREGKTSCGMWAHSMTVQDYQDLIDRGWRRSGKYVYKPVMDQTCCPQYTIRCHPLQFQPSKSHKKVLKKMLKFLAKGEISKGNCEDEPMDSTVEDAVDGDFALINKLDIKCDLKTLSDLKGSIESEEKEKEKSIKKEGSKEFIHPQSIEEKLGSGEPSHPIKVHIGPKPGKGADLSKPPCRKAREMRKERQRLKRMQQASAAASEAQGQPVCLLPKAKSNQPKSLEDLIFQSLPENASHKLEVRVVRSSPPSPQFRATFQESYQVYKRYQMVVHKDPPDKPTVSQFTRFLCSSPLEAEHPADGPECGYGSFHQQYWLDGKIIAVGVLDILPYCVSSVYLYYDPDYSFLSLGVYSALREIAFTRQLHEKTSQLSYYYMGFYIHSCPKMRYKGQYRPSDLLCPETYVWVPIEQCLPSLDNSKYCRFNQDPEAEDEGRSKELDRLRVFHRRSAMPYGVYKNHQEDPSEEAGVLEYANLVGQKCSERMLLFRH
# BSA, sequence (P02769 25-607): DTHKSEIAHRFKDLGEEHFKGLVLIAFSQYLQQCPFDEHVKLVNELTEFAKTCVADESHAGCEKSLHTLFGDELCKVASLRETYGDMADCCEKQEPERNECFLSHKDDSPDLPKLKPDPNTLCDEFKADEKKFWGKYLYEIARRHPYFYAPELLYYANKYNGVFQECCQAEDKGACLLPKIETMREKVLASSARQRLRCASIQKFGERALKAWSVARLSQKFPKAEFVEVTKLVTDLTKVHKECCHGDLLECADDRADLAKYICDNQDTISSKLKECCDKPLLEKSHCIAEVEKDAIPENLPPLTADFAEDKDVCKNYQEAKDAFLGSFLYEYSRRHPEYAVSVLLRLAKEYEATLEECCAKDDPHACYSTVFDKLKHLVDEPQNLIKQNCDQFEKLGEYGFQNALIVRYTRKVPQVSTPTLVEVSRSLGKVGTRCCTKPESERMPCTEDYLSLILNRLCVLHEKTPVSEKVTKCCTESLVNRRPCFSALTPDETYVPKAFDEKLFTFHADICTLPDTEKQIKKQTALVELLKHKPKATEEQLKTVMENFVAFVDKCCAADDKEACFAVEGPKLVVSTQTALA
# Arginyl-tRNA-protein transferase Ate1, isoform Ate1-1 (mouse), sequence (Q9Z2A5 whole entry, canonical isoform): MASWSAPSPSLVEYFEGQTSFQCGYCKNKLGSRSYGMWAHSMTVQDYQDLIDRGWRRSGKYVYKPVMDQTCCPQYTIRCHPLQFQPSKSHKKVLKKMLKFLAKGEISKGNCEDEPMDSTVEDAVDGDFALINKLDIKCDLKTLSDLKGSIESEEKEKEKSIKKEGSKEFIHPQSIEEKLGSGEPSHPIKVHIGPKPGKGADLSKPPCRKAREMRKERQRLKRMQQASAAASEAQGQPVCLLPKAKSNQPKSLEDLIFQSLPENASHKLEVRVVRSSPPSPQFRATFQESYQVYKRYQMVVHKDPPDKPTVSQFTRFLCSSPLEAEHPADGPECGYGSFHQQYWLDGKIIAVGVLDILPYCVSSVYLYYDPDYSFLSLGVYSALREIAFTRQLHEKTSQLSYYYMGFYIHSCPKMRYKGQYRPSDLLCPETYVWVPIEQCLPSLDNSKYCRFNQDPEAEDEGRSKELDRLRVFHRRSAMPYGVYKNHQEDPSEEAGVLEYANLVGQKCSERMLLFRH
substance,measurement,setting,value
BSA (from UniProt P02769 25-607) (natural protein),Km of arginylation of the substrate by Ate1-1 (enzyme kinetics by ITC),[1],33.2 µM
same,Km of arginylation of the substrate by Ate1-3 (enzyme kinetics by ITC),[2],52.5 µM
